Assay results published in PMC2811012 (Nucleic Acids Research, 2009).

Columns and labels:
[1] = molecular target: T1, GST-MPP8 (MPP8 chromodomain) (Homo sapiens, UniProt Q99549); test: AlphaScreen competitive binding, GST-MPP8/b-H3K9me3
T1 sequence (Q99549 50-120): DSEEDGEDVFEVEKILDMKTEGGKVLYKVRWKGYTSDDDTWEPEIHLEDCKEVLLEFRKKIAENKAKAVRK

[2] = molecular target: Human M-phase phosphoprotein chromodomain-containing region (amino acids 50–120) with N-terminal GST tag (human) (UniProt Q99549); test: AlphaScreen or HTRF
[3] = molecular target: Mouse heterochromatin protein 1-beta chromodomain-containing region (amino acids 1–185) with N-terminal GST tag (mouse) (UniProt P83917); test: AlphaScreen or HTRF
Mouse heterochromatin protein 1-beta chromodomain-containing region (amino acids 1–185) with N-terminal GST tag (mouse), sequence (P83917 whole entry, the tested form may be a part): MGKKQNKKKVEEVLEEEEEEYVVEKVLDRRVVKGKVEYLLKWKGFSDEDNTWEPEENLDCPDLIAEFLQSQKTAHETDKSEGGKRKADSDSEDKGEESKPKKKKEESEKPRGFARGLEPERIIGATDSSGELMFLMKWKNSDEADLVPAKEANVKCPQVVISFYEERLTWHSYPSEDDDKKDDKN

C[C@H](N)C(=O)N[C@@H](CCCNC(=N)N)C(=O)N[C@H](C(=O)N[C@@H](CCCCN)C(=O)N[C@@H](CCC(N)=O)C(=O)N[C@H](C(=O)N[C@@H](C)C(=O)N[C@@H](CCCNC(=N)N)C(=O)N[C@@H](CCCCN)C(=O)N[C@@H](CO)C(=O)N[C@H](C(=O)NCC(=O)NCC(=O)N[C@@H](CCCCN)C(=O)N[C@@H](C)C(=O)N1CCC[C@H]1C(=O)N[C@@H](CCCNC(=N)N)C(=O)N[C@@H](CCCCN)C(=O)O)[C@@H](C)O)[C@@H](C)O)[C@@H](C)O [Peptide H3]
EC50 [1]: 160 µM

biotinylated histone H3 peptide trimethylated at Lys9
fold AlphaScreen signal over b-H3K4me3 [2]: 1.7 fold | fold AlphaScreen signal over b-H3K4me3 [3]: 3.3 fold

biotinylated histone H3 peptide trimethylated at Lys4
AlphaScreen signal [2]: 26000 c.p.s. | AlphaScreen signal [3]: 7800 c.p.s.
